Measurements published in US9458483B2, “Compositions comprising a polypeptide having cellulolytic enhancing activity and a bicyclic compound and uses thereof” (Novozymes, Inc., priority 2010, dated 2016).
Read-outs that look alike come from different tables or passages of the source.

What was measured:
[1] = tested on: Trichoderma reesei cellulase composition; type: biochemical
Description: (§1) Control saccharification reactions containing equivalent methanol-containing buffer concentrations, 2% and 10% (v/v) methanol, or no methanol, were performed on each 96-well plate. […] All experiments were performed in triplicate, unless otherwise indicated.
(§2) The filtrates were analyzed for sugar content as described below. […] Data were processed using MICROSOFT EXCEL® software (Microsoft, Richland, Wash., USA), or […]® software (Synergy Software, Reading, Pa., USA).
Similarly, the effect of each bicyclic compound tested in the absence of GH61 polypeptide was quantified by calculating the ratio of percent conversion for the T. reesei cellulase composition without supplemented GH61 polypeptide having cellulolytic enhancing activity in the presence of each compound to the percent conversion in the absence of each compound:
In general, the bicyclic compound effect(no GH61) was approximately 1, though the methanol solvent was inhibitory to cellulolysis (Example 3).

[2] = tested on: Trichoderma reesei cellulase composition; type: biochemical; details: for GH61 effect: 2% methanol
Description: as §1, §2
[formula] where 1.111 represents the mass conversion factor accounting for the hydration of glucose produced from the cellulose polymer. The fractional hydrolysis is defined herein as the conversion expressed as a fraction rather than as a percent (i.e., % conversion/100).
[formula] […] Thus for saccharification reactions where only the presence of a bicyclic compound differs, a difference in GH61 effect can be attributed to the effect of the bicyclic compound on the cellulolytic enhancing effect of the GH61 polypeptide.

Molecule: CO [methanol]
- effect on saccharification by the T. reesei cellulase composition ([1]; 2% and 10% (v/v) methanol): inhibited saccharification
- bicyclic compound effect(no GH61) ([1]; 2% methanol, 3 days): 0.93
- bicyclic compound effect(no GH61) ([1]; 2% methanol, 7 days): 0.90
- bicyclic compound effect(no GH61) ([1]; 10% methanol, 3 days): 0.43
- bicyclic compound effect(no GH61) ([1]; 10% methanol, 7 days): 0.35

B1: T. aurantiacus GH61A polypeptide: GH61A polypeptide having cellulolytic enhancing activity (SEQ ID NO: 14), recombinantly prepared in Aspergillus oryzae JaL250 (protein, listed as Thermoascus aurantiacus)
chain: MSFSKIIATAGVLASASLVAGHGFVQNIVIDGKYYGGYLVNQYPYMSNPPEVIAWSTTATDLGFVDGTGYQTPDIICHRGAKPGALTAPVSPGGTVELQWTPWPDSHHGPVINYLAPCNGDCSTVDKTQLEFFKIAESGLINDDNPPGIWASDNLIAANNSWTVTIPTTIAPGNYVLRHEIIALHSAQNQDGAQNYPQCINLQVTGGGSDNPAGTLGTALYHDTDPGILINIYQKLSSYIIPGPPLYTG
- GH61 effect ([2]; 3 days of hydrolysis): 0.98±0.078
- GH61 effect ([2]; 7 days of hydrolysis): 1.01±0.06
- GH61 effect (Equation 4) ([2]; 10% methanol, 3 days): 1.00±0.068
- percent conversion in the presence of 50% (w/w) T. aurantiacus GH61A polypeptide ([2]; 10% methanol, 3 days of hydrolysis): 11.8±0.379%
- percent conversion in the presence of 50% (w/w) T. aurantiacus GH61A polypeptide ([2]; 10% methanol, 7 days of hydrolysis): 15.1±0.388%
- percent conversion in the presence of 50% (w/w) T. aurantiacus GH61A polypeptide ([2]; 3 days of hydrolysis, no bicyclic compound, no methanol, averaged over all plates): 26.2±1.17%
- GH61 effect (Equation 4) ([2]; 3 days of saccharification, no bicyclic compound, no methanol): 0.98±0.064
- percent conversion in the presence of 50% (w/w) T. aurantiacus GH61A polypeptide ([2]; 7 days of hydrolysis, no bicyclic compound, no methanol, averaged over all plates): 41.4±1.67%
- GH61 effect (Equation 4) ([2]; 7 days of saccharification, no bicyclic compound, no methanol): 0.99±0.051
- GH61 effect on AVICEL ([2]; in the absence of bicyclic compounds): 1
